Measurements published in patent publication US20250281611A1 (BIOSCEPTRE AUST, published 2025).

T1: CD19 (UniProt P15391 20-556, limits assumed)
T1 construct: whole, on cells; also called CD19 on JeKo-1
T1 sequence (looked up): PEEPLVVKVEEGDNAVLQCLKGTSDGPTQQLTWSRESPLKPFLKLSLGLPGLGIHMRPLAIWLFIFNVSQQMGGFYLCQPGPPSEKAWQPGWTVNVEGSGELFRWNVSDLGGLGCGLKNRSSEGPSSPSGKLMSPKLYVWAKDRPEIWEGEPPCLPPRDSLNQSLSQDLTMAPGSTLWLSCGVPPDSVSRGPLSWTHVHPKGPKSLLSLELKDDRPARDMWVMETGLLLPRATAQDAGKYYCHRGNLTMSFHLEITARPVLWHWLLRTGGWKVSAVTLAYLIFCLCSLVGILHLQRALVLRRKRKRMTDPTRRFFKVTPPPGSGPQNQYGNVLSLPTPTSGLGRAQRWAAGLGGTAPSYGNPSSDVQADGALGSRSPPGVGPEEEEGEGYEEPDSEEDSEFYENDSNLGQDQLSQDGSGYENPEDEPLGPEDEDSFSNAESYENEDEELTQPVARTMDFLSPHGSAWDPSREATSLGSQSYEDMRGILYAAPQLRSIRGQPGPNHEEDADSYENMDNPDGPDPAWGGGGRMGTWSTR


Legend:
[1] = biological target: T2, nfP2X7 CAR 1; experiment: flow cytometry, CAR T cells, anti-His-FITC, EGFR+ over EGFR- cells
T2 construct: Expressed on T cells with truncated EGFR as marker gene; also called anti-nfP2X7 receptor CAR 1; nfP2X7 targeted CAR on EGFR+ T cells
How it was run: (§1)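 CAR T cells incubated with BRiDGE variants at saturating concentrations; bound BRiDGE detected with anti-His-FITC by flow cytometry. EGFR marks CAR expression. Value is median fluorescence intensity on EGFR+ (CAR+) cells divided by that on EGFR− (CAR−) cells.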

[2] = biological target: T3, CD33 (UniProt P20138 18-364, limits assumed); experiment: flow cytometry, MOLM-13 cells, anti-His-FITC detection, ratio to no bridge
T3 construct: whole, on cells; also called Siglec-3; CD33 on MOLM-13 cells
T3 sequence (P20138 18-364 limits assumed): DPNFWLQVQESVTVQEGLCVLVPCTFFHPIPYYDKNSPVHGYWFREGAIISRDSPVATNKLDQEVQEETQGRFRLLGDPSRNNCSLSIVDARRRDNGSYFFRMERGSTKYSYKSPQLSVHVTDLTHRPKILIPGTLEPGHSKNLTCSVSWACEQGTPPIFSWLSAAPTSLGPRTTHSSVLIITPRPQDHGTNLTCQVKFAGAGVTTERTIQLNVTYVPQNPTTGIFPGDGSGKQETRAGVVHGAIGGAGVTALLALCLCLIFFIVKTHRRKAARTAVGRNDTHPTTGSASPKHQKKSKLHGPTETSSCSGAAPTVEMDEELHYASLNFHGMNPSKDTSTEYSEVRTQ
Protocol: (§2) MOLM-13 cells were incubated with different CD33 BRIDGE variants at saturating concentrations. […] The MFI intensity correlates with the number of secondary antibodies bound to the CD33 BRIDGE variants that are only detected if they are bound to the MOLM-13 cells. MFI: median fluorescence intensity. BLItz: Bio-Layer interferometry (BLI) technology using HIS-tag identification tips. […] The higher the MFIR, the stronger the binding.

[3] = biological target: T3, CD33; experiment: flow cytometry, MOLM-13 cells, anti-His-FITC detection
Protocol: as §2

[4] = biological target: T2, nfP2X7 CAR 1; experiment: flow cytometry, nfP2X7 CAR T cells (EGFR+), anti-His-FITC detection
[5] = biological target: T2, nfP2X7 CAR 1; experiment: flow cytometry, CAR T cells, anti-His-FITC, EGFR+ MFI over background 0.4
How it was run: as §1

[6] = biological target: T4, nfP2X7 CAR 1; experiment: flow cytometry, nfP2X7 CAR 1 T cells (EGFR+ gate), anti-His-FITC detection
T4 construct: CAR-positive cells gated by the co-expressed EGFR marker; also called nfP2X7 targeted CAR; nfP2X7 CAR on EGFR+ T cells
Protocol: (§3) nfP2X₇ CAR T cells were incubated with different BRiDGE variants at saturating concentrations. […] The MFI intensity correlates with the number of secondary bound antibodies bound to the BRiDGEs that are only detected if they are bound to the CAR T cells. EGFR was used as a marker gene to detect the CAR expression. Thus, the EGFR+ T cell population was defined as the CAR expressing cells and the EGFR− T cell population was defined as the CAR negative subset. MFI: median fluorescence intensity. EGFR: epidermal growth factor receptor. BLItz: Bio-Layer interferometry (BLI) technology using HIS-tag identification tips. HIS-tag MFI Ratio: relative index that is calculated by the testing condition MFI divided by the control MFI, which corresponds to the MFI measured on EGFR+ T cells (defined as CAR positive cells) divided by the MFI measured on the EGFR− T cells (defined as CAR negative cells). […] The higher the MFIR, the stronger the binding.

[7] = biological target: T4, nfP2X7 CAR 1; experiment: flow cytometry, anti-His-FITC, MFI on EGFR+ (CAR+) over EGFR- (CAR-) T cells
Protocol: as §3

[8] = biological target: T1, CD19; experiment: flow cytometry, JeKo-1 cells, BIL03s-AF647 detection, MFI over no-bridge control
Protocol: (§4) JeKo-1 cells were incubated with different CD19 BRiDGE variants at saturating concentrations. […] The MFI intensity correlates with the number of secondary bound antibodies bound to the CD19 BRiDGE variants that are only detected if they are bound to the JeKo-1 cells. MFI: median fluorescence intensity. BLitz: Bio-Layer interferometry (BLI) technology using HIS-tag identification tips. […] The higher the MFIR, the stronger the binding.

[9] = biological target: T1, CD19; experiment: flow cytometry, JeKo-1 cells, bridge at saturating conc., BIL03s-AF647 detection
Protocol: as §4

[10] = biological target: T1, CD19; experiment: flow cytometry, JeKo-1 cells, bridge at saturating conc., anti-His-FITC detection
Protocol: as §4

[11] = biological target: T1, CD19; experiment: flow cytometry, JeKo-1 cells, anti-His-FITC detection, MFI over no-bridge control
Protocol: as §4

[12] = biological target: T4, nfP2X7 CAR 1; experiment: flow cytometry, anti-His-FITC, MFI on EGFR+ (CAR+) T cells over background 0.44
Protocol: as §3

Binder	HisTag MFI Ratio of EGFR+/EGFR- [1]	MFIR HisTag FITC [2]	MFI HisTag FITC [3]	MFI HisTag FITC in EGFR+ Population [4]	HisTag MFI Ratio (background 0.4) [5]	MFI HisTag FITC in EGFR+ Population [6]	HisTag MFI Ratio of EGFR+/EGFR- [7]	MFIR BIL03 AF647 [8]	MFI Bil03 AF647 [9]	MFI HisTag FITC [10]	MFIR HisTag FITC [11]	HisTag MFI Ratio (background 0.44) [12]
CD33 PURIFIED BRIDGE (Fab, V domains shown, also called old variant; original E200 CD33 Fab bridging molecule derived from lintuzumab) VH: QVQLVQSGAEVKKPGSSVKVSCKASGYTFTDYNMHWVRQAPGQGLEWIGYIYPYNGGTGYNQKFKSKATITADESTNTAYMELSSLRSEDTAVYYCARGRPAMDYWGQGTLVTVSS VL: DIQMTQSPSSLSASVGDRVTITCRASESVDNYGISFMNWFQQKPGKAPKLLIYAASNQGSGVPSRFSGSGSGTDFTLTISSLQPDDFATYYCQQSKEVPWTFGQGTKVEIKR	4	10.6	7.12	1.58	4	–	–	–	–	–	–	–
CD19 BRIDGE variant B4 (Fab) heavy: EVQLVESGGGLVKPGGSLKLSCAASGYTFTSYVMHWVRQAPGKGLEWIGYINPYNDGTKYNEKFQGRVTISSDKSISTAYMELSSLRSEDTAMYYCARGTYYYGTRVFDYWGQGTLVTVSSASTKGPSVFPLAPSSKSTSGGTAALGCLVKDYFPEPVTVSWNSGALTSGVHTFPAVLQSSGLYSLSSVVTVPSSSLGTQTYICNVNHKPSNTKVDKKVEPKSCHHHHHH light: GHNYTTRNILPGLNITSTFHKTSGSGKEPKSSDKTHTDIVMTQSPATLSLSPGERATLSCRSSKSLQNVNGNTYLYWFQQKPGQSPQLLIYRMSNLNSGVPDRFSGSGSGTEFTLTISSLEPEDFAVYYCMQHLEYPITFGAGTKLEIKRTVAAPSVFIFPPSDEQLKSGTASVVCLLNNFYPREAKVQWKVDNALQSGNSQESVTEQDSKDSTYSLSSTLTLSKADYEKHKVYACEVTHQGLSSPVTKSFNRGEC	–	–	–	–	–	2.05	4.1	19.6	9.02	3.89	5.05	4.7
CD19 BRIDGE variant B5 (Fab) heavy: EVQLVESGGGLVKPGGSLKLSCAASGYTFTSYVMHWVRQAPGKGLEWIGYINPYNDGTKYNEKFQGRVTISSDKSISTAYMELSSLRSEDTAMYYCARGTYYYGTRVFDYWGQGTLVTVSSASTKGPSVFPLAPSSKSTSGGTAALGCLVKDYFPEPVTVSWNSGALTSGVHTFPAVLQSSGLYSLSSVVTVPSSSLGTQTYICNVNHKPSNTKVDKKVEPKSCHHHHHH light: GHNYTTRNILPGLNITSTFHKTSGSGKGSEPKSSDKTHTDIVMTQSPATLSLSPGERATLSCRSSKSLQNVNGNTYLYWFQQKPGQSPQLLIYRMSNLNSGVPDRFSGSGSGTEFTLTISSLEPEDFAVYYCMQHLEYPITFGAGTKLEIKRTVAAPSVFIFPPSDEQLKSGTASVVCLLNNFYPREAKVQWKVDNALQSGNSQESVTEQDSKDSTYSLSSTLTLSKADYEKHKVYACEVTHQGLSSPVTKSFNRGEC	–	–	–	–	–	2.08	4.2	12	5.5	3.4	4.42	4.7
CD19 BRIDGE variant B1 (Fab, V domains shown) VH: EVQLVESGGGLVKPGGSLKLSCAASGYTFTSYVMHWVRQAPGKGLEWIGYINPYNDGTKYNEKFQGRVTISSDKSISTAYMELSSLRSEDTAMYYCARGTYYYGTRVFDYWGQGTLVTVSS VL: DIVMTQSPATLSLSPGERATLSCRSSKSLQNVNGNTYLYWFQQKPGQSPQLLIYRMSNLNSGVPDRFSGSGSGTEFTLTISSLEPEDFAVYYCMQHLEYPITFGAGTKLEIKR	–	–	–	–	–	2.1	4	6.93	3.19	3.21	4.17	4.8
CD19 BRIDGE variant B3 (Fab, V domains shown) VH: EVQLVESGGGLVKPGGSLKLSCAASGYTFTSYVMHWVRQAPGKGLEWIGYINPYNDGTKYNEKFQGRVTISSDKSISTAYMELSSLRSEDTAMYYCARGTYYYGTRVFDYWGQGTLVTVSS VL: DIVMTQSPATLSLSPGERATLSCRSSKSLQNVNGNTYLYWFQQKPGQSPQLLIYRMSNLNSGVPDRFSGSGSGTEFTLTISSLEPEDFAVYYCMQHLEYPITFGAGTKLEIKR	–	–	–	–	–	2.05	4.1	11.8	5.43	3.63	4.71	4.7
CD19 BRIDGE variant B2 (Fab, V domains shown) VH: EVQLVESGGGLVKPGGSLKLSCAASGYTFTSYVMHWVRQAPGKGLEWIGYINPYNDGTKYNEKFQGRVTISSDKSISTAYMELSSLRSEDTAMYYCARGTYYYGTRVFDYWGQGTLVTVSS VL: DIVMTQSPATLSLSPGERATLSCRSSKSLQNVNGNTYLYWFQQKPGQSPQLLIYRMSNLNSGVPDRFSGSGSGTEFTLTISSLEPEDFAVYYCMQHLEYPITFGAGTKLEIKR	–	–	–	–	–	2.07	4.1	9.07	4.17	3.47	4.51	4.7
CD19 BRIDGE variant B7 (Fab, V domains shown) VH: EVQLVESGGGLVKPGGSLKLSCAASGYTFTSYVMHWVRQAPGKGLEWIGYINPYNDGTKYNEKFQGRVTISSDKSISTAYMELSSLRSEDTAMYYCARGTYYYGTRVFDYWGQGTLVTVSS VL: DIVMTQSPATLSLSPGERATLSCRSSKSLQNVNGNTYLYWFQQKPGQSPQLLIYRMSNLNSGVPDRFSGSGSGTEFTLTISSLEPEDFAVYYCMQHLEYPITFGAGTKLEIKR	–	–	–	–	–	2.22	4	16.5	7.57	3.31	4.3	5
